What was measured:
Details in all cases: both partners purified
[1] = target: T1, PAPOA structured core (His8-3C-PAPOA residues 1–513-FLAG), wild type (human, UniProt P51003 1-513); experiment: pull-down; FLAG pull-down on α-FLAG M2 Protein G Dynabeads; FLAG-tagged PAPOA core 2.5 µM as bait, PAPOAC 100 µM (40× excess); 20 mM HEPES-NaOH pH 7.5, 50 mM NaCl, 5 mM MgCl2, 0.01% NP-40 substitute, 4°C; Coomassie-stained SDS-PAGE
T1 construct: A 3C site lies between His8 and PAPOA; no cleavage step is described in the purification; also called PAPOA core; PAPOA_(1–513); source: E. coli BL21 STAR (DE3) pRARE, purified (Talon, HiTrap Heparin, Superdex 200); not shown: FLAG, C-terminal, kept
T1 sequence (P51003 1-513): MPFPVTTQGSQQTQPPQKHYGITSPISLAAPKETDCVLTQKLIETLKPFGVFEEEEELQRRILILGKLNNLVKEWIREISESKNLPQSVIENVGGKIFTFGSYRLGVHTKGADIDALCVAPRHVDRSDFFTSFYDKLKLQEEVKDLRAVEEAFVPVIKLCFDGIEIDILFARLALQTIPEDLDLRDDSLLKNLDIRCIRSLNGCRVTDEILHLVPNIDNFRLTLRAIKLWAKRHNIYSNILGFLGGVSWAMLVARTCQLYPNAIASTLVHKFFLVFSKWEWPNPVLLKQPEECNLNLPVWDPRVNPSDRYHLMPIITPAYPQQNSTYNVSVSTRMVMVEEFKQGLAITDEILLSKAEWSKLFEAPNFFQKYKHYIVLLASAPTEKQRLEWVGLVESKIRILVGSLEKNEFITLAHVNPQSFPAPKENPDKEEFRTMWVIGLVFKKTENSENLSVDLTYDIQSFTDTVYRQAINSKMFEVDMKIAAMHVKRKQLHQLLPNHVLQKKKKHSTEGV

[2] = target: T2, CPSF160–WDR33 (CPSF160 coexpressed with TwinStrep3C-WDR33 residues 1–413-FLAG) (human, UniProt Q10570 1-1443; Q9C0J8 1-413); experiment: pull-down; FLAG pull-down on α-FLAG M2 Protein G Dynabeads; FLAG-tagged WDR33 (CPSF160–WDR33) 1.5 µM as bait, PAPOAC 15 µM; 20 mM HEPES-NaOH pH 7.5, 150 mM NaCl, 0.01% NP-40 substitute, no MgCl2, 4°C; Coomassie-stained SDS-PAGE
T2 construct: human CPSF160 (mPSF subunit); human WDR33 (mPSF subunit), residues 1-413; A 3C site follows the TwinStrep tag; no cleavage step is described; also called FLAG-tagged WDR33; source: Sf9, baculovirus coexpression, purified (StrepTactin XT, MonoQ, Superdex 200); not shown: FLAG, C-terminal, kept
T2 sequence (Q10570 whole entry, chain 1 of 2, the tested form may be a part): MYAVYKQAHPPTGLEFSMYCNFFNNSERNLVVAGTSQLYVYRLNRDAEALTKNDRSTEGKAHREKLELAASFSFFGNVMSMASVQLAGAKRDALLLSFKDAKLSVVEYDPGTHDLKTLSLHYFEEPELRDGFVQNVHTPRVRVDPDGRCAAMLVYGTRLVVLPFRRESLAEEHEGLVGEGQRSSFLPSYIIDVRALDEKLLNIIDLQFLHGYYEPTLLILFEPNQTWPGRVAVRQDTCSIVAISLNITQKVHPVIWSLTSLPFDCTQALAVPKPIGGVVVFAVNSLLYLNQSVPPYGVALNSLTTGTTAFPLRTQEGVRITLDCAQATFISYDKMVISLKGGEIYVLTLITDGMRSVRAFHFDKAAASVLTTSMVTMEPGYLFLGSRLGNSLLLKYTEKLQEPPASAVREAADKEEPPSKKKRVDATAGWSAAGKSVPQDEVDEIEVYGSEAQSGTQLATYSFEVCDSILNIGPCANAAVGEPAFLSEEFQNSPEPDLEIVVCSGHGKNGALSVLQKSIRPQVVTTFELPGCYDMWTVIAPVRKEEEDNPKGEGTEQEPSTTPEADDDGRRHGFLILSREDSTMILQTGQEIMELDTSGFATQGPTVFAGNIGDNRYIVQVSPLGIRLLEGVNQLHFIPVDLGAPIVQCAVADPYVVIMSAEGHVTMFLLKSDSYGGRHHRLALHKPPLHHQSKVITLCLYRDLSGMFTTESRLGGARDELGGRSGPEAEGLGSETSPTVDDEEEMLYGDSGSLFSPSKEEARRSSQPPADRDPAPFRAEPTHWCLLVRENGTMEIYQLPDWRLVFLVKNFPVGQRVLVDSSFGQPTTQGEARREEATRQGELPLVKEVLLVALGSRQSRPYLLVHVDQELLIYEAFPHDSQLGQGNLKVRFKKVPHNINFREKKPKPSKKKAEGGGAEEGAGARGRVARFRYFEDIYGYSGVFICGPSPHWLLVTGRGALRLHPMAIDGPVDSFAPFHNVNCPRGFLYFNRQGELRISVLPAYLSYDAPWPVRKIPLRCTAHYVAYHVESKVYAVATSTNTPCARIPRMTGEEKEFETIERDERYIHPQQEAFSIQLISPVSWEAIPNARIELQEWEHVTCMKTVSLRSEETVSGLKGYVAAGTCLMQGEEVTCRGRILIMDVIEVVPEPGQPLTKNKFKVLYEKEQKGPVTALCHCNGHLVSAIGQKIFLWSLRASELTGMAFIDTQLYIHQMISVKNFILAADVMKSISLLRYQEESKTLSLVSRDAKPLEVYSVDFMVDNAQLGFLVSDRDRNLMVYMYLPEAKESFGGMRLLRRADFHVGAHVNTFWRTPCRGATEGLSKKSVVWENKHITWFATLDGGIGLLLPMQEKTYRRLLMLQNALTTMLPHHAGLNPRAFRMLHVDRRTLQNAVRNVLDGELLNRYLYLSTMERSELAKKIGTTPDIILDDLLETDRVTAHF
T2 sequence (Q9C0J8 1-413, chain 2 of 2): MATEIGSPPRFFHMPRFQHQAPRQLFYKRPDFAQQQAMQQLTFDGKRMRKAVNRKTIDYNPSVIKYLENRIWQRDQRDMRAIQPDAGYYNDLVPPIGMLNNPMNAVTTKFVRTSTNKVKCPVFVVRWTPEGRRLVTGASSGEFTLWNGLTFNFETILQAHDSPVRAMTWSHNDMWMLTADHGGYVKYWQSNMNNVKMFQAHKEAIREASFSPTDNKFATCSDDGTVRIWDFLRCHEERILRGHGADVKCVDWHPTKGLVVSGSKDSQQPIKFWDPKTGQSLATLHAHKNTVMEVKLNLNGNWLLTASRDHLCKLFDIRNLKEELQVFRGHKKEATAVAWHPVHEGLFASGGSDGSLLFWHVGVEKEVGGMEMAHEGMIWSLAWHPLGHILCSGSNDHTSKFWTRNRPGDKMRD

[3] = target: T1, PAPOA structured core (His8-3C-PAPOA …); experiment: pull-down; FLAG pull-down on α-FLAG M2 Protein G Dynabeads; FLAG-tagged PAPOA core 2.5 µM as bait, FIP1 25 µM (10× excess); 20 mM HEPES-NaOH pH 7.5, 150 mM NaCl, 5 mM MgCl2, 0.01% NP-40 substitute, 4°C; Coomassie-stained SDS-PAGE

| binding result [1] | binding result [2] | binding result [3] | Binder |
| --- | --- | --- | --- |
| binds | binds | – | DLSDIPALPANPIPVIKNSIKLRLNR (human poly(A) polymerase alpha (PAPOA), C-terminal motif, residues 720-745; A 3C site follows MBP; no cleavage step is described in the purification; also called PAPOA C terminus; PAPOAC peptide; source: E. coli BL21 STAR (DE3) pRARE, purified (Amylose resin, Superdex 200)) [minimal PAPOAC construct (His6-MBP-3C-PAPOA residues 720–745), wild type] |
| – | – | binds | ETEDDSDSDSDDDEDDVHVTIGDIKTGAPQYGSY (peptide, UniProt Q6UN15 80-113, looked up, A 3C site follows MBP; no cleavage step is described in the purification; also called minimal FIP1 peptide; source: E. coli BL21 STAR (DE3) pRARE, purified (Amylose resin, Superdex 200)) [minimal FIP1 construct (His6-MBP-3C-FIP1 residues 80–113), wild type] |

Source: paper PMC11182016, “Molecular basis of human poly(A) polymerase recruitment by mPSF” (RNA, 2024)
